Reference: the DeepSol protein solubility set

Experiment: soluble on expression in E. coli; label from the status in PepcDB or PDB records

Sequence | soluble on expression in E. coli
SEAVRPDSCESGPAAPRAEERPAPEARVHFRVTRFIMEAGVKLGMQSIPIATACTIYHKFFCEINLDAYDLYLVAMSSIYLAGKVEEQHLRTRDIINVSHRYFNPGSEPLELDSRFWELRDSIVQCELLMLRVLRFQVSFQHPHKYLLHYLISLKNWLNRYSWQRTPISVTAWALLRDSYHGGLCLRFQAQHLAVAVLYLALQVYGVEVPAEGEAEKPWWQVFSDDLTKPIIDNIVSDLIQIYTMDTEIP | soluble
SEAWEYFHLAPARAGHHPNQYATCRLCGRQVSRGPGVNVGTTALWKHLKSMHREELEKSGHGQ | soluble
SEEITDGVNNMNLATDSQKKNRIQVSNTKKPLFFYVNLAKRYMQQYNDVELSALGMAIATVVTVTEILKNNGFAVEKKIMTSIVDIKDDARGRPVQKAKIEITLVKSEKFDELMAAANEEKEDAETQVQN | soluble
SEKLAASTEPQGPRPVLGRESVQVPDDQDFRSFRSECEAEVGWNLTYSRAGVSVWVQAVEMDRTLHKIKCRMECCDVPAETLYDVLHDIEYRKKWDSNVIETFDIARLTVNADVGYYSWRCPKPLKNRDVITLRSWLPMGADYIIMNYSVKHPKYPPRKDLVRAVSIQTGYLIQSTGPKSCVITYLAQVDPKGSLPKWVVNKSSQFLAPKAMKKMYKACLKYPEWKQKHLPHFKPWLHPEQSPLPSLALSELSVQHADSLENIDESAVAESREERMGGAGGEGSDDDTSLT | soluble
SELFTLGACRQVGKSCFVLKTSEGLVMLDCGLHPSYQDDRRYPNFSLAFSYGPLKAVFITHCHADHVGALPILTERWGYDGPIYMSEPTRKLSYYILEECVGSWGGDDEWTDSSRSEWSYTQREVESCLTKCIVGWLDMCWVLTCLASS | soluble
SESSGGPTSSLAGTSRNTHVEDDDVVFIESVQPPICAPAIPNERNFVFASSKHENPPGTDSTISPSWRDLTSQKGNLCETIVIDDEGDTDTNGGEEKNPTDFIEWGPNGNKSSTKNVDFPIASLSRSKTKTAVGPFNPGRIDVTDAFQNGRFAVHHNPDSWISQSASFPRNQKQQGVDSLSPVASLPKQIFQPSNQQPTKPVKVTCANCKKPLQKGQTAYQRKGSAHLFCSTTCLSSFSHKRTRKTRNVMCKK | soluble
SETQEGVSKQSIRERIWDYMESHDIADFPRPVHHRIPNFKGAAQAAGHLPHLQAFHVARTIKVNPDAPQRNARFLVLESKKTLLVPTPRLRTGLFNKITPPPGATKDILRKCATSQGVRNFSVPVGLDSSVLVDLVVVGSVAVSEKGKLETGCLDVPEGYPGHSPLACVHAESLTSAPVPLTLQAFCCSVSPHGRLSVIGMGGIESLSHLNQHSVERPLPGLCGGPLMVVVIPH | not soluble
SFDNSLSRELSRKQNENQMFVYSFEASASMLSSDTEYIQKNDIEKIIDSVKRSMGESQIGITIVNQKEKAIYTDSKIGKNIKIKDLKDNNFGYLIFKNNGSYYLETMSKMTIESGTYYISIVSSINEVYNDINEMMKN | not soluble
SFHGIPASGVMGGAPANKPELYEEVKLYKNAREREKYDNMAELFAVVKTLQALEKAYIKDCVTPNEYTGACSRLLVQYKAAFKQVQGSDVGSIDDFCRKYRLDCPLAMERIKEDRPITIKDDKGNLNRCIADIVSLFITVMDKLRLEIRAMDEIQPDLRELMETMNRMSNMPPDSEAKDKVSLWLTTLSSMSASDELDDSQVRQMLFDLESAYNAFNRFLHSS | soluble
SFKKFDEKENVSNCIQLKTSVIKGIKNQLLEQFPGIEPWLNQIMPKKDPVKIVRCHEHIEILTVNGELLFFRQREGPFYPTLRLLHKYPFILPHQQVDKGAIKFVLSGANIMCPGLTSPGAKLYPAAVDTIVAIMAEGKQHALCVGVMKMSAEDIEKVNKGIGIENIHYLNDGLWHMKTYK | soluble
SGELGEHRASLLSNPIPEVKTLGELKQGQNNGNLDLESEPFGSHWLQGSKATTGRTSEEPEEEIPPEEMAGEELPETSNLDGPLQQDLEVEVVEMSHLSITERTPSVSTAKGRKKRSRRLLELAKPKTNWQCLRDRPSVYWTERFIEDTTLTITVPVVSQRMEELSRPKRFYQEYYNNNRTTPIWSIPRSTLEYQASNRLKQLATPKVRNNIWSINMSEVSQVSRAAQMAVPTPRTLRLAKPRPPATLLEEWDPMPKPKPYVSDYNRLLQLATPKALSEKCVPDRSPQWEVLDVTKNAVASSRIISLAQPKIRKDLNEGYNPYYISPASLVAQASPRIYELATPKYITKKV | soluble
SGGRPIQFFRRLAIWKYMKDYFPVSLVKTAELDPSRNYIAGFHPHGVLAAGAFLNLCTESTGFTSLFPGIRSYLMMLTVWFRAPFFRDYIMSGGLVSSEKVSADHILSRKGGGNLLAIIVGGAQEALDARPGAYRLLLKNRKGFIRLALMHGAALVPIFSFGENNLFNQVENTPGTWLRWIQNRLQKIMGISLPLFHGRGVFQYSFGLMPFRQPITTIVGKPIEVQMTPQPSREEVDRLHQRYIKELCKLFEEHKLKFNVPEDQHLEFC | soluble
SGKQPVKLKAVVYALSPFQQKIMTGLWKDLPEKIHHKVSENWISATLLVTPVVGTYWYAQYFKEQEKLEHRF | soluble
SGQKVTGGIKTVDMRDPTYRPLKQELQGLDYCKPTRLDLLLDMPPVSYDVQLLHSWNNNDRSLNVFVKEDDKLIFHRHPVAQSTDAIRGKVGYTRGLHVWQITWAMRQRGTHAVVGVATADAPLHSVGYTTLVGNNHESWGWDLGRNRLYHDGKNQPSKTYPAFLEPDETFIVPDSFLVALDMDDGTLSFIVDGQYMGVAFRGLKGKKLYPVVSAVWGHCEIRMRYLNGLDPEPLPLMDLCRRSVRLALGRERLGEIHTLPLPASLKAYLLYQ | soluble
SGRKIGSIVMNANPFTLGHQYLIEQACEQCDWVHLFVVKAENKDFSYADRMAMIKAGSKHLLNLTIHSGSDYIISRATFPSYFIKDQQVVNQSHTALDLSIFRHSIAPALGITHRFVGSEPICTVTRHYNQAMRRWLEEAHDASAPIQVVEIERSQQASQPISASRVRYLLKQFGFAAIADLVPKTTYSYLCQHYAEH | not soluble
SGRPIEDVRDRQRLADATATVHETRLALHHGRGNIESDFRLSNGRSSTCSYLSYSFLSYWPGKHDINLMAGCALAVSAGNCDQNAAINTRRHAARMEGGGQITNVCDQACAHMYALYQPPGSAEAQDSAVVLDSWSDGPAVLLRDSRWAGTYHRTSTYPIERFDKPGAIDALARTRALQAEIEDPQTEFHAHLRGVESVVRTPPVPRKIYASTP | not soluble
SGTQALLVEERARLERLLGARLEAAADQALARLVEANPQPVHLICDLTHRLLACSPARAAQFGVPLGELLDRSLWPYCSEEILRQEATLEELGWRELLAPPALEFASGANASAIVPIRRSRCRWTRMTLSDGRAVRLVETL | not soluble
SHMEIVPDTSVVIDGRVSDQVKADADPDTDVDGMGFAGATVVVPEAVVGELEAQANDGRETGWEGLEELQTLVDLAEEGTIDVEYVGRRPDAIEKREAGEGQIDALIRDIAGDRDATLVTSDDVQAEVARAKGLAVEFVDPVKRTVDRLQIENFFDEG | not soluble
SHMTDDKKKGKFIVFEGLDRSGKSTQSKLLVEYLKNNNVEVKHLYFPNRETGIGQIISKYLKMENSMSNETIHLLFSANRWEHMNEIKSLLLKGIWVVCDRYAYSGVAYSSGALNLNKTWCMNPDQGLIKPDVVFYLNVPPNYAQNRSDYGEEIYEKVETQKKIYETYKHFAHEDYWINIDATRKIEDIHNDIVKEVTKIKVEPEEFNFLWS | soluble
SIEKIWAREILDSRGNPTVEVDLYTAKGLFRAAVPSGASTGIYEALELRDGDKQRYLGKGVLKAVDHINSTIAPALISSGLSVVEQEKLDNLMLELDGTENKSKFGANAILGVSLAVCKAGAAERELPLYRHIAQLAGNSDLILPVPAFNVINGGSHAGNKLAMQEFMILPVGAESFRDAMRLGAEVYHTLKGVIKDKYGKDATNVGDEGGFAPNILENSEALELVKEAIDKAGYTEKIVIGMDVAASEFYRDGKYDLDFKSPTDPSRYITGDQLGALYQDFVRDYPVVSIEDPFDQDDWAAWSKFTANVGIQIVGDDLTVTNPKRIERAVEEKACNCLLLKVNQIGSVTEAIQACKLAQENGWGVMVSHRSGETEDTFIADLVVGLCTGQIKTGAPCRSERLAKYNQLMRIEEELGDEARFAGHNFRNPSVLHHHHHH | soluble
SIGLFKVKEKQREQAQNATRGGASVKKQSAGELRLHKDISELNLPSSCSISFPNGKDDLMNFEVSIKPDDGYYHNGTFVSHSKSLLCIHMKLQKLNAKPRFIIPISIWKETFA | soluble
SIRLPAHLRLQPIYWSRDDVAQWLKWAENEFSLRPIDSNTFEMNGKALLLLTKEDFRYRSPHSGDELYELLQHILKQRDHHHHHHHRHD | soluble
SKIYDNKNQLIADLGSERRVNAQANDIPTDLVKAIVSIEDHRFFDHRGIDTIRILGAFLRNLQSNSLQGGSTLTQQLIKLTYFSTSTSDQTISRKAQEAWLAIQLEQKATKQEILTYYINKVYMSNGNYGMQTAAQNYYGKDLNNLSLPQLALLAGMPQAPNQYDPYSHP | not soluble
SKPSKPFNVDDVLKFTFTGEKHHHHHH | soluble
SKVFNLDRGNTLSVSLFSGVTNSKELLNSMLDGSLKLEVSFLNASLIPGIFPLLAAAQKALISKSRDSLSTRTLHSELVYNYSGSKHITESLKRCGISENTTYILAARFNASPVEMEEVAKLINGKEIDLEELKTHANQANILKHYKITSQELGISSLGDAIVCRIAARDAL | soluble
SLAEGLITGTVLTQFDQLYRKKPGMTMSCAKLPQNISKNRYRDISPYDATRVILKGNEDYINANYINMEIPSSSIINQYIACQGPLPHTCTDFWQMTWEQGSSMVVMLTTQVERGRVKCHQYWPEPTGSSSYGCYQVTCHSEEGNTAYIFRKMTLFNQEKNESRPLTQIQYIAWPDHGVPDDSSDFLDFVCHVRNKRAGKEEPVVVHCSAGIGRTGVLITMETAMCLIECNQPVYPLDIVRTMRDQRAMMIQTPSQYRFVCEAILKVYEEGFVKPLTTSTNK | not soluble
SLDFRDKVRNMDLQAGLYRHYKGQNYRVLGVARHSETEEALVIYQALYGEFGLWVRPLEMFTEAVEVDGEWVPRFVLVSPEADPLGLQKAPGGEDRA | soluble
SLDKIEHIGIAVKNLEAGNSLYEKLMGVPHYKIEEVASEGVRTSFFKTGPNKIELLEATNDDSAIAKFIEKKGEGIHHIAFAVENIVEEMERLKKEGFIILNEKPKKGADNKLVAFVHPKTAGGVLIELCQEINEG | soluble
SLELWLNKATDPSMSEQDWSAIQNFCEQVNTDPNGPTHAPWLLAHKIQSPQEKEALYALTVLEMCMNHCGEKFHSEVAKFRFLNELIKVLSPKYLGSWATGKVKGRVIEILFSWTVWFPEDIKIRDAYQMLKKQGIIKQDPKLPVDKI | soluble
SLGRIKAQAFGFDQTFQSYRKDDFVMAFFKDPNVIPNLKLLSDSSGQWIILGTEVKKIEAINVPCTQLSMSFFHRLYDEDIVRDSGHIVKCLDSFCDPFLISDELRRVLLVEDSEKYEIFSQPDREEFLFCLFKHLCLGGALCQYEDVISPYLETTKLIYKDLVSVRKNPQTKKIQITSSVFKVSAYDSAGMCYPSAKNHEQTFSYFIVDPIRRHLHVLYHCYGVGDMS | soluble
